Data from the domain aggregation screens of Martell et al. (2025).

Experiment: soluble fraction after stress (log2 fold change); higher = more stays soluble; pooled small domains, quantitative proteomics
Conditions: stress: 75 degC
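Also: 20 min heating vs room temperature control held 20 min.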

Row | Sequence | soluble fraction (log2)
1 | HMSFDNIKVGYISETAGYVKGISLADANEYAKLNPDTEFIFIDGDEKVRFLTINEVNGLTPKNLLRSDP | 0.229
2 | HMSFGFFELKSSDTDKLFAYLNNNEHFGNIKEENGLVTAFLTSELDAQTLNKLLFDNGIIASHLVKRK | -0.928
3 | HMSFMPDPSIHDAITYTVRSGDYLGKISTTFGVKVSDLQKWNSIKSNIIYPGQKLTVWVSSNKRESLQ | -1.71
4 | HMSFPLKRGSKGNRVTQLQNALVKKFGASILPKYGVDGMFGKEVEAALVRAKLPTSINESTYNSFV | 0.125
5 | HMSFVAYEEEKAIGMVRLIGDGGMSFYIKDFAVLPGHQGKGVGQMLLMELQQYLLEHKPADWAVSLE | -0.359
6 | HMSGAKLLAPVTGTLLRYTVAEGTKVSEGQTVIMLESMKMELEINAHKAGVIHFTAAAGAQVAEGDSLAEI | -0.945
7 | HMSGDKKLQMNLILEFAQQNESFRTKDIEELLQIRSSRARKLISDLVTEGRLEALGENRNRRYQLI | -1.05
8 | HMSGDYRALYSSLPPERASSVVDALNVAGIPYRIQDSTGAIMVPAEQIYDARIRLAGQGLGK | 0.104
9 | HMSGEPKNERQIEVPDVTKKSIREANNILTSEGLRLRIEGTGLAVSQKPAAGTMVEPDTIITVTFQAP | 0.441
10 | HMSGHEVMVQRITAIIAELYQYGFVSRKKMMDEFNISERTLYRDLNRLGDRIVPDGDGIYRLAPAYA | -1.55
11 | HMSGHIPGIKIKGVIFFDKGSSSNHIIATTENNSNLKLRVGETVQGAVLKSIHPNHVIFFHHNQLIEVGIG | -4.39
12 | HMSGKGEFDQLLRSGEYVQAFQRANANGNVTLRRQQLLNLARHQAASGVGSGAIESLSTIQRI | 0.00597
13 | HMSGKMTVPNVVGKTETEAKSALSAKGFTNVRTETVDSTEAAGTVVKQSLDADSVQDPKTEIVLSVSNG | 0.946
14 | HMSGKWKIRILWYIAEYEVQRFGELRRRLGDITQSTLTEQLRELEQDGFVSRYVYQEVPSKVEYSLTE | 0.197
15 | HMSGKWSILILHALEQGPKRFNVLHRELSGITQATLTKQLRQLEEDGIILRKAYPQIPPKVEYQLTEIG | -1.82
16 | HMSGNPLDTYYSKWSAEIKKGSPNAVISKEGDKYYVSIPGENRMAIIYENPHLIRMVNATRNIHVE | -0.092
17 | HMSGPSDRDLFDEALALLSGSGREPDYHEARIRLGTLVEQFPESKWAEGAKALLSMLDRVSALQV | 0.247
18 | HMSGPVITEERNIANALISGLANMKETPTREQVERKAQQIAELFGYTGDLRNIITEAMISVDT | -0.0406
19 | HMSGRPPTYTAEERSAVIAAALSRPADLGLPFASWTLDRLVAYLGEKGIGMKRSRMSEVLLAEGLKW | -2.02
20 | HMSGSGYAYVDKYGYSHVVKDYDTAKNYASDGNVYNYSGSHKGGYAYDADNYRVPLDLPGSKPYG | 0.191
21 | HMSGSIIQQAENLERQFGDTREAILGTLSDPKMSEEILETLMERYNKQHGTNWDKNTWAEEWAKANK | 0.682
22 | HMSGSILVQVSATDLNIRKGPGTNYGTTGKYTGKGTFTIVETRSGQGSNAGWGKLKSGAGWISLDYAKR | -1.54
23 | HMSGTESMIEGRGEARTAIDGEGKVFFQGEYWTAQSDQFIPQGAKVRIKKVEGLNLIVEEIK | 0.065
24 | HMSGTYIVTVQANTLDIYKSMTSNDTIGKANKGDVFQILEDMGGGYAKVSYNDVEGYISIKDGDTSIDEM | -0.389
25 | HMSGVIVPDIYNKTLAEAVASLEGEGFSTEKKEGYSDTVPKGNVMSQKPEAGTSAERGSTVTITISQGPQ | 0.0579
26 | HMSGWIATGTATSTGNDVRVRSTPDATVNNNILLTLNKGNRFEIDGQTQNGFYHIKVNDTIGWISGLYVKE | -0.976
27 | HMSGYFSDKKLNELFEQYLIMREKKGKPVVGYQLKILIDRLNQVAANTKEKIEVVSNAIAGDWNTFYPIKR | -2.07
28 | HMSHDTLVYRLAQMLVKLNQGEKLDPQQLAEEFGVNLRTIQRDLNVRFAYLQLEKTDGRYHLDPTFL | -1.46

Row | Sequence | soluble fraction (log2)
29 | HMSHLTKKQEEVLLFIRDYYEEEGRSPSYSDIQHHFGLKSKSSVQDYIGYLKKAGFLQKSVGSRAIELV | -2.52
30 | HMSHQIIIVAVELDPSTERIVYYLSKNGISINVLFFKVFQHGDEQFLSRVWLIDPSETQTNAALA | -0.726
31 | HMSIESMVGRFGVVTKDVVANEMAGKVKVGREEFRATADIAVSSGTKVKVTHAEGITLTVVPE | 0.611
32 | HMSIGKEATPDDIVPNIRVYHATFGYGNVIKTDGVSHDKKAVVNFDSVGEKTLLLKFAKLILPY | -0.557
33 | HMSIGLEGFVGKLGISTSDLRPSGWGEFDAKKLFVVTEGEFVDRKEKIEILSVDGNRILVRKIS | -1.56
34 | HMSILPGVYRHYKGNHYQVFYLAKHSETLEDMVVYQALYGERGIWVRPASMWNETVDDQGKQVKRFTYI | -3.58
35 | HMSILYNAVKGTLVSSGALTADSWYKISSFGTASALPALKVGSIFKTPEGAGDAITLASGDSVYPLTLT | -1.28
36 | HMSINQTIEGKKQGYWIIYGNMRNLQEYLSNEVIEEGQFKNSRKEGVWRKYFPGGQMKSEITYINGRP | -0.266
37 | HMSINTIIAKNLNRLRNERNLSLGQLAELSGVSKVMLSQIEKGDSNPTVNTIWKIASGLNVPYTAILDQP | -0.798
38 | HMSIPVLKDGTYESWGNEKVYKVGDRVMVGSNGYVAKWWNQDETPEKAIINPNDSPWRPMTESEIMEVLK | -0.128
39 | HMSISEADAKKIALEKVPGATDSNLRIKTDYDDGIMKYEVKIVYNEMKYEFDIDAATGTILEWESESVY | -1.37
40 | HMSISSSEAARSAVASSGGTVLGVSKASHGGYKAWAVRIQRADGSVVTGYVDRASGTVYDWVVNQAA | -0.663
41 | HMSKEDDSLVVTFRRMLLEEVDLHELSRIDANQRRARLERVIAHLVSREGVILSASERNQLVRRVVDEAV | -2
42 | HMSKEEAIQAMKEGKKVTHRFFSSDEWMTIENGFLLLEDGVRISLEDFFNFRSDSLWDNGYELYNPH | -0.628
43 | HMSKFSDTLVYLRKRAGFSQQELADKMEVSRSLVGMYESGQRMPSYEMLEALADIFNVNIDFLTGH | -1.28
44 | HMSKIRSEINKFSSDADKPILEWLFERYHWASQWRFVARFSEQRYGVLSYEINRVWEPTIEGRALYDQL | -2.27
45 | HMSKKMLASIFDTISGIGKKRLKKIWDNYTSLNELKDDSLENIYAKTQIPINLITKIKEKLE | -0.913
46 | HMSKKMTNEEILNFLKKVLIKHGKISGFIIDEDDNGPSSSVVASRFGGLLNAYKLINYTPER | -0.906
47 | HMSKMTLGENLRLLRREKGLSQEQVAQTLFVARQTISKWENGQAEPGVESLKALAKLYGVSLDRLVGA | -1.01
48 | HMSKPLEVFKLTSEPFGFSFNTALGRSYTVEATGDLGVWKAVELFQGSGGEIRFTAKPTSSGGAQFFRVFV | 0.0649
49 | HMSKPVYILINKPKGFLASSTDKKVKKSVNDLINISNLNKIYPFDNMGRTSSGLLLLSNDLYFKKHFKDKI | 0.451
50 | HMSKQKRIKYFLSILNIKSIKQFRKKDLDYFYQKRFIEIQKSSKDKKLVSNQLIELNAAKEYLDEIDFEN | -3.78
51 | HMSKQQVRSILDDIPNIGETRRKALMRQFQSLEKIREASVGQLREVDGMNEKAAQSVYQFFHK | -0.0426
52 | HMSKQVDVVIYILENTKAADNTYIGTYRKTADGAGVSLDTATKVMRKLQENNFIKKVQNGVYQISPLIMM | -1.42
53 | HMSKRDDLLDQASEWLAKLDRDLTVVEERELKAWLGESAAHRETFIQMAKLWDKMESLSRLTDL | -0.898
54 | HMSKSVEQRRQQIVAWVKEHGQSQVEDLAVRFATSEVTIRKDLAALSQQGLLIRQFGGAVPVPA | -0.982
55 | HMSKTQYTFKEVGSQFQLFAPSTKHTIMISADHPKYGWLTNQDQGRVINVYDTGKMTSSQDYYGLYKEVT | 0.587
